This passage reports Kd results from article PMC9352680, “A comprehensive thermodynamic model for RNA binding by the Saccharomyces cerevisiae Pumilio protein PUF4”.

Broadly, the Kd is the constant that tells how readily two partners part at equilibrium. The low end stands for tighter binding, the high end for weaker binding.

Residue numbers refer to the chain shown, from its start. Names may count otherwise.

The target of the data set is T1, PUF4 RNA-binding domain (Saccharomyces cerevisiae, UniProt P25339 537-888).
T1 sequence: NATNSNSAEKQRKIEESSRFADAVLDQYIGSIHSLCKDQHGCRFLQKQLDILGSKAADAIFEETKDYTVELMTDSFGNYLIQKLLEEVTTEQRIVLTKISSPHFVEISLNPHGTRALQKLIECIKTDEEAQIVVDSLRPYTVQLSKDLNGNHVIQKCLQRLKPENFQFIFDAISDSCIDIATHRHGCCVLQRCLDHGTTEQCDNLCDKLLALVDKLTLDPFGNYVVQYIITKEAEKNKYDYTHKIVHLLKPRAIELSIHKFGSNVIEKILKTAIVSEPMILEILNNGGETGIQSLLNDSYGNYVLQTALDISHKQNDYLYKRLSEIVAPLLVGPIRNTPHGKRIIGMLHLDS
The data set can be described thus: Mg; RNA-MaP; 20 mM Na-HEPES pH 7.4, 30 mM KOAc, 0.75 mM MgCl2, 0.1% Tween-20, 5% glycerol, 0.1 mg/mL BSA, 2 mM DTT; 25 C; 0.0125-409.6 nM protein. The conditions noted are these: tags: N-His6-TEV cleaved; C-SNAP kept, Cy3B-labelled; label: tethered on chip by stalled RNA polymerase.

B1: Ib_S2_P4E.1_K4.1_C4.1_H4.1_[G2T]_A4.1_F4.1_[A9T]_T4.1 (ssRNA)
RNA: UUUGAUUAAUAUGAUAUCGUUCUUUCUUUUAUAUUUUUCUUUCUCGAUAUCAUAUUAAUCUUU
The molecule B1 came in with a Kd of 1670 nM. This counts as single-digit micromolar.

B2: Ib_S2_P4E.1_K4.1_C4.1_H4.1_[T3C]_A4.1_F4.1_[A9T]_T4.1 (ssRNA)
RNA: B1 RNA with U29G, U30C
As to B2, the Kd is 957 nM.

B3: Ib_S2_P4E.1_K4.1_C4.1_H4.1_A4.1_[A6C]_F4.1_[T8A]_T4.1 (ssRNA)
RNA: B1 RNA with U29G, A33C, U35A, U36A
On to B3, for which the affinity, expressed as Kd, was 10.7 nM.

B4: Ic_S2_P4E.1_K4.1_C4.1_H4.1_A4.1_[T7G]_F4.1_[T8C]_T4.1 (ssRNA)
RNA: B1 RNA with U29G, U34G, U35C, U36A
On to B4, for which binding was characterised by a dissociation constant (Kd) of 42 nM. This Kd lies about 3.9-fold higher than the previous one.

B5: Ib_S2_P4E.1_K4.1_C4.1_H4.1_[A4G]_A4.1_F4.1_[A9C]_T4.1 (ssRNA)
RNA: B1 RNA with U29G, A31G, U36C
B5 had an equilibrium dissociation constant (Kd) of 11.9 nM.

B6: Ic_S2_P4E.1_K4.1_C4.1_H4.1_A4.1_[T7A]_F4.1_[T8A]_T4.1 (ssRNA)
RNA: B1 RNA with U29G, U34A, U35A, U36A
In the case of B6, binding was put at a Kd of 16.9 nM.

B7: Ib_S2_P4E.1_K4.1_C4.1_H4.1_A4.1_[T5A]_F4.1_[T8C]_T4.1 (ssRNA)
RNA: B1 RNA with U29G, U32A, U35C, U36A
For the molecule B7, the Kd is 58.5 nM.

B8: Ib_S2_P4E.1_K4.1_C4.1_H4.1_A4.1_[T5A]_F4.1_[T8A]_T4.1 (ssRNA)
RNA: B1 RNA with U29G, U32A, U35A, U36A
B8 returned a Kd of 13.5 nM.

B9: Ib_S2_P4E.1_K4.1_C4.1_H4.1_[A4T]_A4.1_F4.1_[A9G]_T4.1 (ssRNA)
RNA: B1 RNA with U29G, A31U, U36G
As for B9, the Kd was determined as 63.2 nM.

B10: Ic_S2_P4E.1_K4.1_C4.1_H4.1_A4.1_[T7C]_F4.1_[T8A]_T4.1 (ssRNA)
RNA: B1 RNA with U29G, U34C, U35A, U36A
B10 displayed a dissociation constant Kd of 18 nM. This Kd lies about 3.5-fold lower than the previous one.

B11: Ib_S2_P4E.1_K4.1_C4.1_H4.1_A4.1_[A6T]_F4.1_[T8A]_T4.1 (ssRNA)
RNA: B1 RNA with U29G, A33U, U35A, U36A
As for B11, the affinity, expressed as Kd, was 17.8 nM.

B12: Ib_S2_P4E.1_K4.1_C4.1_H4.1_A4.1_[A6C]_F4.1_[T8C]_T4.1 (ssRNA)
RNA: B1 RNA with U29G, A33C, U35C, U36A
B12 yielded a Kd of 30.6 nM.

B13: Ib_S2_P4E.1_K4.1_C4.1_H4.1_A4.1_[T5C]_F4.1_[T8A]_T4.1 (ssRNA)
RNA: B1 RNA with U29G, U32C, U35A, U36A
B13 returned a Kd of 2.52 nM.

B14: Ic_S2_P4E.1_K4.1_C4.1_H4.1_A4.1_[T7C]_F4.1_[T8C]_T4.1 (ssRNA)
RNA: B1 RNA with U29G, U34C, U35C, U36A
B14 displayed a Kd of 12 nM.

B15: Ib_S2_P4E.1_K4.1_C4.1_H4.1_A4.1_[T5A]_F4.1_[A9G]_T4.1 (ssRNA)
RNA: B1 RNA with U29G, U32A, U36G
Consider B15, for which binding was put at a Kd of 9.22 nM.

B16: Ib_S2_P4E.1_K4.1_C4.1_H4.1_[A4G]_A4.1_F4.1_[A9T]_T4.1 (ssRNA)
RNA: B1 RNA with U29G, A31G
Turning to B16, binding was characterised by a dissociation constant (Kd) of 5.78 nM.

B17: Ic_S2_P4E.1_K4.1_C4.1_H4.1_A4.1_[A6T]_F4.1_[T8C]_T4.1 (ssRNA)
RNA: B1 RNA with U29G, A33U, U35C, U36A
Turning to B17, the Kd came to 104 nM.

B18: Ib_S2_P4E.1_K4.1_C4.1_H4.1_[A4C]_A4.1_F4.1_[A9C]_T4.1 (ssRNA)
RNA: B1 RNA with U29G, A31C, U36C
B18 yielded a Kd of 624 nM.

B19: Ib_S2_P4E.1_K4.1_C4.1_H4.1_[A4G]_A4.1_F4.1_[A9G]_T4.1 (ssRNA)
RNA: B1 RNA with U29G, A31G, U36G
B19 came in with a Kd of 28.9 nM.

B20: Ib_S2_P4E.1_K4.1_C4.1_H4.1_[T3C]_A4.1_F4.1_[A9C]_T4.1 (ssRNA)
RNA: B1 RNA with U29G, U30C, U36C
In the case of B20, binding was characterised by a dissociation constant (Kd) of 1070 nM.

B21: Ic_S2_P4E.1_K4.1_C4.1_H4.1_A4.1_F4.1_[T8A]_T4.1 (ssRNA)
RNA: B1 RNA with U29G, U35A, U36A
Molecule B21 yielded a Kd of 2.04 nM. This Kd is about 520-fold lower than that of the molecule before.

B22: Ib_S2_P4E.1_K4.1_C4.1_H4.1_A4.1_[T7A]_F4.1_[T8C]_T4.1 (ssRNA)
RNA: B1 RNA with U29G, U34A, U35C, U36A
With B22, the Kd worked out at 18.8 nM.

B23: Ia_S2_P4E.1_K4.1_C4.1_H4.1_A4.1_F4.1_[A9C]_T4.1 (ssRNA)
RNA: B1 RNA with U29G, U36C
In turn, B23 returned a Kd of 2.83 nM.
